The values below are quoted from earlier work in PMC9843440.

For the data set, the target named is IκBα (Homo sapiens) (UniProt P25963).
Sequence of UniProt P25963 (P25963 whole entry): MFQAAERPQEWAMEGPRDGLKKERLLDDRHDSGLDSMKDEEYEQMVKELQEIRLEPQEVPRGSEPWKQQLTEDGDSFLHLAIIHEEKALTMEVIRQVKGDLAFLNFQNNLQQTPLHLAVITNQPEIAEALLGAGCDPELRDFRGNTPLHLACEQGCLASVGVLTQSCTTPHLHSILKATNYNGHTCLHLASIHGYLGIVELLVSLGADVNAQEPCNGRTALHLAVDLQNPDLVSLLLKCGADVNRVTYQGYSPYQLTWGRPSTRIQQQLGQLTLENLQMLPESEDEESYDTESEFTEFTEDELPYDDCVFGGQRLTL

One may read the Kd as a measure of binding affinity in units of concentration. Consider IKKβ (from UniProt O14920), for which the dissociation constant (Kd) was 56 nM.
